Experimental data from patent US20120122128A1.

Tests used:
[1] = target: T1, SNAP-25 peptide comprising amino acids 134-197 of SEQ ID NO: 5 (human); assay: SPR (BIAcore 3000), peptide amine-coupled to CM5 chip, antibody as analyte, 1:1 fit
[2] = target: T1, SNAP-25 peptide comprising amino acids …; assay: SPR, comparison of the KD values of Table 9
[3] = target: T1, SNAP-25 peptide comprising amino acids …; assay: SPR, comparison of the Kd values of Table 9
[4] = target: T1, SNAP-25 peptide comprising amino acids …; assay: SPR (BIAcore 3000), peptide amine-coupled to CM5 chip, antibody as analyte, 1:1 fit, first of two runs
[5] = target: T1, SNAP-25 peptide comprising amino acids …; assay: SPR (BIAcore 3000), peptide amine-coupled to CM5 chip, antibody as analyte, 1:1 fit, second independent run on another chip
[6] = target: SNAP-25 peptide comprising amino acids 134-197 of SEQ ID NO: 5 (human); assay: SPR (BIAcore 3000), peptide amine-coupled to CM5 chip, antibody as analyte, 1:1 fit; remark: listed apart in the source

B1: α-SNAP-25 monoclonal antibody 1D3B8 (antibody, V domains shown)
VH: VKLQESGAELVKPGASVKISCKASGYIFTDHALHWVRQKPEQGLEWIGYIFPGNGNIEYNEKFKGKATLTADKSSSTAYMQLNSLTSGDSAMYFCKKMDYWGQGTTVTVSS
VL: DVLMTQTPLSLPVSLGDQASISCRSSQSIVHSNGNTYLEWYLQKPGQSPKLLIYKVSNRFSGVPDRFSGSGSGTDFTLKISRVEAEDLGVYYCFQGSHVPPTFGAGTKLELKR
Kd [1]: 0.05 nM | koff [1]: 5.78e-05 s⁻¹ | kon [1]: 1.06e+06 M⁻¹ s⁻¹ | fold difference of equilibrium disassociation constant against MC-6050 and MC-6053 [2]: 10 fold

B2: α-SNAP-25 monoclonal antibody 2E2A6 (antibody)
chain 1: QVQLQQSDAELVKPGASVKISCRASGYTFTDHSIHWVKQQPGQGLEWIGYIFPGNGNIEYNDKFKGKATLTADKSSGTAYMQLNSLTSEDSAVYFCKRMGYWGQGTSVTVSS
chain 2: DVLMTQTPLTLSVTIGQPASISCKSSQSLLYTNGKTYLTWLFQRPGQSPKRLIYLVSELDSGVPDRFSGSGSGTDFTLEITRVEAEDLGVYYCLQSAHFPFTFGSGTKLEIKR
fold slower off rate against MC-6050 and MC-6053 [3]: > 1 fold | Kd [4]: 0.09 nM | koff [4]: 0.000153 s⁻¹ | kon [4]: 1.7e+06 M⁻¹ s⁻¹ | Kd [5]: 0.405 nM | koff [5]: 6.74e-05 s⁻¹ | kon [5]: 166000 M⁻¹ s⁻¹

B3: α-SNAP-25 monoclonal antibody 3C1A5 (antibody, V domains shown)
VH: VKLQESGAELVKPGASVKISCKASGYTFTDHSIHWVKQKPGQGLEWIGYLFPGNGNFEYNEKFKGKATLTADKSSSTVYMYLNSLTSEDSAVYFCKRMGYWGQGTTVTVSS
VL: DIKMTQSPSSMYASLGERVTITCKASQDIKSYLSWYQQKPWKSPKTLIYYATSLADGVPSRFSGSGSGQDYSLTISSLESDDTATYYCLQHGESPFTFGSGTKLEIKR
Kd [1]: 1.33 nM | koff [1]: 0.000288 s⁻¹ | kon [1]: 217000 M⁻¹ s⁻¹

B4: α-SNAP-25 monoclonal antibody 2C9B10 (antibody, V domains shown)
VH: VKLQESGAELVKPGASVKISCKASGYTFTDHSIHWVKQKPGQGLEWIGYLFPGNGNFEYNEKFKGKATLTADKSSSTAYMHLNSLTSEDSAVYFCKKMDYWGQGTTVTVSS
VL: DIQMTQSPASLSASVGETVTITCRTTENIYSYFVWSQQRQGKSPQLRVYNAKSLAEGVPSSFNVSVSGTQFSLKINSLQPEDFGTYHCQHHYGTPYTFGGGTRLEIRR
Kd [6]: 27.1 nM | koff [6]: 0.000311 s⁻¹ | kon [6]: 11500 M⁻¹ s⁻¹
